The text below walks through data of patent US20200055920A1 (published 2020).

Like-named read-outs stand apart in the source and are kept apart here.

What all share (assay): Biacore SPR; receptor-Fc captured by anti-Fc antibody, ligand injected
In one experiment the target is T1, GDF6 (UniProt Q6KF10 336-455, limits assumed).
T1 construct: also called BMP13
T1 sequence (looked up): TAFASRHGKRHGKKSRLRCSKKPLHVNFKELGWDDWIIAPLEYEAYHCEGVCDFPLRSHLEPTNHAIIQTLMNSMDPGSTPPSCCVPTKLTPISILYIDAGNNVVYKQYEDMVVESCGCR
As for the experimental part: (§1) Ligands were injected and allowed to flow over the captured receptor protein.

The next experiment deals with T2, GDF5 (UniProt P43026 382-501, limits assumed).
T2 construct: also called BMP14
T2 sequence (looked up): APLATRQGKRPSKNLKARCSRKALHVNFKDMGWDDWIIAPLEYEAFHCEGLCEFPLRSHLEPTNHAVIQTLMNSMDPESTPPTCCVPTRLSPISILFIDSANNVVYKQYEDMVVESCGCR
The method, then:
as §1

Experiment [1] addresses T3, BMP4 (UniProt P12644 293-408).
T3 sequence (looked up): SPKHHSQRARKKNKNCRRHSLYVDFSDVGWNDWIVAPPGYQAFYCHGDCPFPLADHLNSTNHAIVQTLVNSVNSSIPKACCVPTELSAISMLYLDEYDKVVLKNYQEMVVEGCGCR

The target of experiment [2] is T4, GDF7 (UniProt Q7Z4P5 322-450, limits assumed).
T4 construct: also called BMP12
T4 sequence (looked up): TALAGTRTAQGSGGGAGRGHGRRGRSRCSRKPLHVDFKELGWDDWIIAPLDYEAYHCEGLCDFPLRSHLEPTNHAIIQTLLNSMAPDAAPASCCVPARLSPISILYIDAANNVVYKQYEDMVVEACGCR

Experiment [3] addresses T5, BMP2 (UniProt P12643 283-396).
Experiment [4] addresses T6, BMP5 (UniProt P22003 317-454, limits assumed).
T6 sequence (looked up): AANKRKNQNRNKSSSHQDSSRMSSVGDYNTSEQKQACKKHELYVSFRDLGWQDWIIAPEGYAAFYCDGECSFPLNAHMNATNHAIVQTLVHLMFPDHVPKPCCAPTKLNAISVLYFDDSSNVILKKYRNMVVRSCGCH

Experiment [5] deals with T7, BMP6 (UniProt P22004 382-513, limits assumed).
T7 sequence (looked up): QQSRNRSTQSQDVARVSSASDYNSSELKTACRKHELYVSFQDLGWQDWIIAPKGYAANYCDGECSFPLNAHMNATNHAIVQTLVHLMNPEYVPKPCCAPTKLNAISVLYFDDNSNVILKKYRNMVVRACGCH

Experiment [6] concerns the target T8, BMP7 (UniProt P18075 293-431).
T8 construct: also called osteogenic protein-1; OP-1
T8 sequence (looked up): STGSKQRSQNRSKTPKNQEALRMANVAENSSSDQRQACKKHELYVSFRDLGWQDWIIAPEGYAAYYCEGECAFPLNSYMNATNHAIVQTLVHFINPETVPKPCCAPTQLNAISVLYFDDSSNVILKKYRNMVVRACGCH

For a further experiment, the target named is T9, TGFβ3 (UniProt P10600 301-412).
T9 construct: also called TGF-beta3
T9 sequence (looked up): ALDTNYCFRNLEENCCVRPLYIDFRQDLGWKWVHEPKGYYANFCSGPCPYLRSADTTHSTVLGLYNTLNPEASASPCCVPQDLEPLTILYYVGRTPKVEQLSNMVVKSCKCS
As for the experimental part:
as §1

A further experiment deals with T10, TGFβ1 (UniProt P01137 279-390).
T10 construct: also called TGF-beta1
T10 sequence (P01137 279-390 limits assumed): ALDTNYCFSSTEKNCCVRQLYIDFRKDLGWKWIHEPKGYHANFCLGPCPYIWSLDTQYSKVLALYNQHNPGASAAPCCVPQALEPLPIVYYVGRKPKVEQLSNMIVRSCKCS
As for the experimental part: as §1

For the next experiment, the target named is T11, TGFβ2 (UniProt P61812 303-414).
T11 construct: also called TGF-beta2
T11 sequence (looked up): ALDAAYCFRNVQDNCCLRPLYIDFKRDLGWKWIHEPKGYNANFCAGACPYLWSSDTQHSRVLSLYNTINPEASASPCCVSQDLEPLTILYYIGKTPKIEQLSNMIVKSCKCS
As for the experimental part:
as §1

The target of experiment [7] is T3, BMP4. The method, then:
(§2) A Biacore™-based binding assay was used to compare ligand binding selectivity of the single-arm BMPRII-Fc heterodimeric complex described above with that of an BMPRII-Fc homodimeric complex. The single-arm BMPRII-Fc and homodimeric BMPRII-Fc were independently captured onto the system using an anti-Fc antibody. Ligands were injected and allowed to flow over the captured receptor protein.
This is another data set of the same source.

Experiment [8] deals with T4, GDF7. The method, then:
as §2
This is another data set of the same source.

For experiment [9], the target named is T5, BMP2. The method, then:
as §2
This is another data set of the same source.

Experiment [10] concerns the target T6, BMP5. The method, then: as §2
This is another data set of the same source.

The target in experiment [11] is T7, BMP6. As for the experimental part:
as §2
The source holds these as a separate data set.

The target of experiment [12] is T8, BMP7. As for the experimental part: as §2
The source holds these as a separate data set.

The next experiment addresses T12, BMP15 (UniProt O95972 268-392).
T12 construct: also called GDF9b
T12 sequence (looked up): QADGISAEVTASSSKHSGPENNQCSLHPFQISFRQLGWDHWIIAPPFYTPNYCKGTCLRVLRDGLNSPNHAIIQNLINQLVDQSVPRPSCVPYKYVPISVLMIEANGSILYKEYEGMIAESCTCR
The method, then:
as §2

The target in a further experiment is T13, BMP10 (UniProt O95393 317-424).
T13 sequence (looked up): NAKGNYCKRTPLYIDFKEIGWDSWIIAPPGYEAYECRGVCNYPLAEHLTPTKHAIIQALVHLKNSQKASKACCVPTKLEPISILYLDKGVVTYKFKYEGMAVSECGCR
As for the experimental part:
as §2

T5 sequence (P12643 283-396 limits assumed): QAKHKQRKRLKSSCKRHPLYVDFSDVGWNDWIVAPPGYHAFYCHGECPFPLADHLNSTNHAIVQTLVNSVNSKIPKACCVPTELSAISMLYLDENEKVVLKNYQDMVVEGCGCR

For ALK3-Fc homodimer (Fc fusion), the Kd amounted to 40 nM in the experiment with GDF6; 22 nM in the experiment with GDF5; 0.178 nM with BMP4 [1]; 12 nM in the experiment with GDF7 [2]; 0.13 nM with BMP2 [3]; 70 nM with BMP5 [4]. The Kd in the experiment with BMP6 [5] is 35 nM; in the experiment with BMP7 [6] it was 15 nM. For the same molecule, the koff with GDF6 was determined as 0.0013 s⁻¹; with GDF5, 0.011 s⁻¹; with BMP4 [1], 5.3e-05 s⁻¹; in the experiment with GDF7 [2] it was 0.0027 s⁻¹; with BMP2 [3], 8.9e-05 s⁻¹; in the experiment with BMP5 [4] it was 0.002 s⁻¹. Moreover, the values for the koff in the experiment with BMP6 [5] and with BMP7 [6] were 0.0049 s⁻¹ and 0.018 s⁻¹, respectively. For the same molecule, the kon with GDF6 stood at 34000 M⁻¹ s⁻¹; in the experiment with GDF5 it was 480000 M⁻¹ s⁻¹; in the experiment with BMP4 [1] it was 300000 M⁻¹ s⁻¹; with GDF7 [2], 220000 M⁻¹ s⁻¹; with BMP2 [3] it was 680000 M⁻¹ s⁻¹; with BMP5 [4] it was 29000 M⁻¹ s⁻¹. In addition, the kon with BMP6 [5] came to 140000 M⁻¹ s⁻¹; with BMP7 [6] it was 1.2e+06 M⁻¹ s⁻¹.

On to TGFβRII-Fc homodimer (Fc fusion), for which the results for the dissociation constant (Kd) in the experiment with TGFβ3, with TGFβ1 and in the experiment with TGFβ2 were 0.099 nM, 0.025 nM and over 44 nM, respectively. For the same molecule, the koff with TGFβ3 was found to be 0.0059 s⁻¹; in the experiment with TGFβ1, 0.0011 s⁻¹. Further, the association rate constant (kon) with TGFβ3 was 5.9e+07 M⁻¹ s⁻¹; with TGFβ1 it was 4.2e+07 M⁻¹ s⁻¹.

B1: single-arm BMPRII-Fc heterodimeric complex (Fc fusion)
chain 1: SQNQERLCAFKDPYQQDLGIGESRISHENGTILCSKGSTCYGLWEKSKGDINLVKQGCWSHIGDPQECHYEECVVTTTPPSIQNGTYRFCCCSTDLCNVNFTENFPPPDTTPLSPPHSFNRDETGGGTHTCPPCPAPELLGGPSVFLFPPKPKDTLMISRTPEVTCVVVDVSHEDPEVKFNWYVDGVEVHNAKTKPREEQYNSTYRVVSVLTVLHQDWLNGKEYKCKVSNKALPAPIEKTISKAKGQPREPQVYTLPPSRKEMTKNQVSLTCLVKGFYPSDIAVEWESNGQPENNYKTTPPVLKSDGSFFLYSKLTVDKSRWQQGNVFSCSVMHEALHNHYTQKSLSLSPGK
chain 2: SNTKVDKRVTGGGTHTCPPCPAPELLGGPSVFLFPPKPKDTLMISRTPEVTCVVVDVSHEDPEVKFNWYVDGVEVHNAKTKPREEQYNSTYRVVSVLTVLHQDWLNGKEYKCKVSNKALPAPIEKTISKAKGQPREPQVYTLPPSREEMTKNQVSLTCLVKGFYPSDIAVEWESNGQPENNYDTTPPVLDSDGSFFLYSDLTVDKSRWQQGNVFSCSVMHEALHNHYTQKSLSLSPGK
notes: also called BMPRII-Fc:Fc heterodimer
For the molecule B1, the binding result with BMP4 [7], with BMP2 [9], with BMP6 [11] and with BMP7 [12] was “no binding” each time. The Kd is over 190 nM with GDF7 [8], 36 nM in the experiment with BMP5 [10], 0.94 nM with BMP15 and 0.43 nM with BMP10. For the same molecule, the values for the koff with BMP5 [10], in the experiment with BMP15 and with BMP10 were 0.015 s⁻¹, 0.067 s⁻¹ and 0.0091 s⁻¹, respectively. Further, the kon with BMP5 [10] was determined as 410000 M⁻¹ s⁻¹; with BMP15 it was 7.1e+07 M⁻¹ s⁻¹; with BMP10, 2.1e+07 M⁻¹ s⁻¹.

B2: single-arm TGFβRII-Fc heterodimeric complex (Fc fusion)
chain 1: TIPPHVQKSVNNDMIVTDNNGAVKFPQLCKFCDVRFSTCDNQKSCMSNCSITSICEKPQEVCVAVWRKNDENITLETVCHDPKLPYHDFILEDAASPKCIMKEKKKPGETFFMCSCSSDECNDNIIFSEEYNTSNPDTGGGTHTCPPCPAPELLGGPSVFLFPPKPKDTLMISRTPEVTCVVVDVSHEDPEVKFNWYVDGVEVHNAKTKPREEQYNSTYRVVSVLTVLHQDWLNGKEYKCKVSNKALPAPIEKTISKAKGQPREPQVYTLPPSRKEMTKNQVSLTCLVKGFYPSDIAVEWESNGQPENNYKTTPPVLKSDGSFFLYSKLTVDKSRWQQGNVFSCSVMHEALHNHYTQKSLSLSPGK
chain 2: B1 chain 2
notes: also called TGFβRII-Fc:Fc heterodimer
As for B2, the Kd was 0.073 nM with TGFβ3, 0.031 nM with TGFβ1 and over 61 nM in the experiment with TGFβ2. The koff with TGFβ3 worked out at 0.0099 s⁻¹; in the experiment with TGFβ1 it was 0.0047 s⁻¹. In addition, the kon with TGFβ3 was 1.4e+08 M⁻¹ s⁻¹; in the experiment with TGFβ1, 1.5e+08 M⁻¹ s⁻¹.

The Kd is the free concentration of one partner at which half of the binding sites on the other are occupied at equilibrium, for simple one-to-one binding. For orientation: koff means a measure of how fast the partners let go of each other. A higher koff goes with a short-lived complex. Broadly, the kon is the second-order rate constant of association.
